B1: SDGF-TB1G1 (TB1G1 displayed on 293F cells) [designed binder] / Biotinylated His-Avi-TEAD1(194–411) [modified: biotin (BirA-500 kit); biotin (BirA-500 kit)] [not stated] (parent complex)
chain 1: PDEYIERAKECCKKGDIQCCLRYFEESGDPNVMLICLFCP
chain 2: RSIGTTKLRLVEFSAFLEQQRDPDSYNKHLFVHIGHANHSYSDPLLESVDIRQIYDKFPEKKGGLKELFGKGPQNAFFLVKFWADLNCNIQDDAGAFYGVTSQYESSENMTVTCSTKVCSFGKQVVEKVETEYARFENGRFVYRINRSPMCEYMINFIHKLKHLPEKYMMNSVLENFTILLVVTNRDTQETLLCMACVFEVSNSEHGAQHHIYRLVKD

Variants of: B1
Test: not given

Variant | ratio to parent
chain 1 C11S, chain 1 C12S, chain 1 C19S, chain 1 C20S, chain 1 C36S, chain 1 C39S | ~0.01
chain 1 M33A | ~0.01
chain 1 E25A | ~0.07

Variants of: B1
Test: mammalian (293F) surface display of a site-saturation mutagenesis library (every non-Cys single substitution), FACS sorting on biotinylated TEAD1 YBD, two sorting rounds, Illumina sequencing with perfect-match mapping; 20 nM biotinylated TEAD, monovalent 2-step stain (TEAD alone 30 min at 4 °C, dilute, pellet, then 20 nM streptavidin-Alexa Fluor 647), flow sorting on a BD Aria

Variant | enrichment
chain 1 A8G | -4.11 log2 (fold change of variant abundance after two TEAD sorts vs input, normalised to TB1G1)
chain 1 A8S | -2.79 log2 (fold change of variant abundance after two TEAD sorts vs input, normalised to TB1G1)
chain 1 A8K | -4.73 log2 (fold change of variant abundance after two TEAD sorts vs input, normalised to TB1G1)
chain 1 A8Q | -6 log2 (fold change of variant abundance after two TEAD sorts vs input, normalised to TB1G1)
chain 1 A8R | -5.84 log2 (fold change of variant abundance after two TEAD sorts vs input, normalised to TB1G1)
chain 1 E3R | -1.81 log2 (fold change of variant abundance after two TEAD sorts vs input, normalised to TB1G1)
chain 1 E3V | -1.39 log2 (fold change of variant abundance after two TEAD sorts vs input, normalised to TB1G1)
chain 1 E3D | 0.801 log2 (fold change of variant abundance after two TEAD sorts vs input, normalised to TB1G1)
chain 1 E3H | -0.307 log2 (fold change of variant abundance after two TEAD sorts vs input, normalised to TB1G1)
chain 1 E3G | -0.623 log2 (fold change of variant abundance after two TEAD sorts vs input, normalised to TB1G1)
chain 1 E3A | -2.02 log2 (fold change of variant abundance after two TEAD sorts vs input, normalised to TB1G1)
chain 1 R7G | 1.31 log2 (fold change of variant abundance after two TEAD sorts vs input, normalised to TB1G1)
chain 1 R7H | -0.322 log2 (fold change of variant abundance after two TEAD sorts vs input, normalised to TB1G1)
chain 1 R7F | -1.04 log2 (fold change of variant abundance after two TEAD sorts vs input, normalised to TB1G1)
chain 1 R7K | 0.473 log2 (fold change of variant abundance after two TEAD sorts vs input, normalised to TB1G1)
chain 1 R7V | -2.31 log2 (fold change of variant abundance after two TEAD sorts vs input, normalised to TB1G1)
chain 1 R7P | -2.49 log2 (fold change of variant abundance after two TEAD sorts vs input, normalised to TB1G1)
chain 1 R7N | 0.343 log2 (fold change of variant abundance after two TEAD sorts vs input, normalised to TB1G1)
chain 1 R7D | -2.25 log2 (fold change of variant abundance after two TEAD sorts vs input, normalised to TB1G1)
chain 1 R7Q | -0.484 log2 (fold change of variant abundance after two TEAD sorts vs input, normalised to TB1G1)
chain 1 R7S | 0.311 log2 (fold change of variant abundance after two TEAD sorts vs input, normalised to TB1G1)
chain 1 R7Y | -1.01 log2 (fold change of variant abundance after two TEAD sorts vs input, normalised to TB1G1)
chain 1 P1H | -0.884 log2 (fold change of variant abundance after two TEAD sorts vs input, normalised to TB1G1)
chain 1 P1I | -2.27 log2 (fold change of variant abundance after two TEAD sorts vs input, normalised to TB1G1)

Variant | enrichment
chain 1 P1F | -1.3 log2 (fold change of variant abundance after two TEAD sorts vs input, normalised to TB1G1)
chain 1 P1E | 1.12 log2 (fold change of variant abundance after two TEAD sorts vs input, normalised to TB1G1)
chain 1 P1Q | -0.836 log2 (fold change of variant abundance after two TEAD sorts vs input, normalised to TB1G1)
chain 1 P1K | -0.294 log2 (fold change of variant abundance after two TEAD sorts vs input, normalised to TB1G1)
chain 1 Y4S | -0.738 log2 (fold change of variant abundance after two TEAD sorts vs input, normalised to TB1G1)
chain 1 Y4A | 0.259 log2 (fold change of variant abundance after two TEAD sorts vs input, normalised to TB1G1)
chain 1 Y4T | -0.869 log2 (fold change of variant abundance after two TEAD sorts vs input, normalised to TB1G1)
chain 1 Y4H | -1.9 log2 (fold change of variant abundance after two TEAD sorts vs input, normalised to TB1G1)
chain 1 Y4E | -6.52 log2 (fold change of variant abundance after two TEAD sorts vs input, normalised to TB1G1)
chain 1 Y4I | -0.405 log2 (fold change of variant abundance after two TEAD sorts vs input, normalised to TB1G1)
chain 1 Y4F | 0.668 log2 (fold change of variant abundance after two TEAD sorts vs input, normalised to TB1G1)
chain 1 Y4M | -0.684 log2 (fold change of variant abundance after two TEAD sorts vs input, normalised to TB1G1)
chain 1 Y4N | 0.0419 log2 (fold change of variant abundance after two TEAD sorts vs input, normalised to TB1G1)
chain 1 K9E | 3.95 log2 (fold change of variant abundance after two TEAD sorts vs input, normalised to TB1G1)
chain 1 K9S | -0.907 log2 (fold change of variant abundance after two TEAD sorts vs input, normalised to TB1G1)
chain 1 K9I | -3.03 log2 (fold change of variant abundance after two TEAD sorts vs input, normalised to TB1G1)
chain 1 K9V | -8.88 log2 (fold change of variant abundance after two TEAD sorts vs input, normalised to TB1G1)
chain 1 K9T | 2.68 log2 (fold change of variant abundance after two TEAD sorts vs input, normalised to TB1G1)
chain 1 K9N | 3.31 log2 (fold change of variant abundance after two TEAD sorts vs input, normalised to TB1G1)
chain 1 K9Q | 1.1 log2 (fold change of variant abundance after two TEAD sorts vs input, normalised to TB1G1)
chain 1 K9W | -4.41 log2 (fold change of variant abundance after two TEAD sorts vs input, normalised to TB1G1)
chain 1 K9R | -1.3 log2 (fold change of variant abundance after two TEAD sorts vs input, normalised to TB1G1)
chain 1 K9F | -3.52 log2 (fold change of variant abundance after two TEAD sorts vs input, normalised to TB1G1)
chain 1 D2R | -7.12 log2 (fold change of variant abundance after two TEAD sorts vs input, normalised to TB1G1)

Variant | enrichment
chain 1 D2Q | -0.201 log2 (fold change of variant abundance after two TEAD sorts vs input, normalised to TB1G1)
chain 1 D2E | 1.16 log2 (fold change of variant abundance after two TEAD sorts vs input, normalised to TB1G1)
chain 1 D2S | -1.01 log2 (fold change of variant abundance after two TEAD sorts vs input, normalised to TB1G1)
chain 1 D2L | -3.53 log2 (fold change of variant abundance after two TEAD sorts vs input, normalised to TB1G1)
chain 1 D2P | -2.11 log2 (fold change of variant abundance after two TEAD sorts vs input, normalised to TB1G1)
chain 1 D2Y | -1.63 log2 (fold change of variant abundance after two TEAD sorts vs input, normalised to TB1G1)
chain 1 D2V | -2.34 log2 (fold change of variant abundance after two TEAD sorts vs input, normalised to TB1G1)
chain 1 I5G | -3.97 log2 (fold change of variant abundance after two TEAD sorts vs input, normalised to TB1G1)
chain 1 I5N | -1.34 log2 (fold change of variant abundance after two TEAD sorts vs input, normalised to TB1G1)
chain 1 I5R | -3.27 log2 (fold change of variant abundance after two TEAD sorts vs input, normalised to TB1G1)
chain 1 I5V | -0.274 log2 (fold change of variant abundance after two TEAD sorts vs input, normalised to TB1G1)
chain 1 I5F | -8.36 log2 (fold change of variant abundance after two TEAD sorts vs input, normalised to TB1G1)
chain 1 I5M | -1.87 log2 (fold change of variant abundance after two TEAD sorts vs input, normalised to TB1G1)
chain 1 I5L | -0.381 log2 (fold change of variant abundance after two TEAD sorts vs input, normalised to TB1G1)
chain 1 I5W | -7.46 log2 (fold change of variant abundance after two TEAD sorts vs input, normalised to TB1G1)
chain 1 M33I | -3.16 log2 (fold change of variant abundance after two TEAD sorts vs input, normalised to TB1G1)
chain 1 E6T | -0.921 log2 (fold change of variant abundance after two TEAD sorts vs input, normalised to TB1G1)
chain 1 E6I | -1.56 log2 (fold change of variant abundance after two TEAD sorts vs input, normalised to TB1G1)
chain 1 E6Y | -2.33 log2 (fold change of variant abundance after two TEAD sorts vs input, normalised to TB1G1)
chain 1 E6V | -1.55 log2 (fold change of variant abundance after two TEAD sorts vs input, normalised to TB1G1)
chain 1 E6S | -1.09 log2 (fold change of variant abundance after two TEAD sorts vs input, normalised to TB1G1)
chain 1 E6L | -0.404 log2 (fold change of variant abundance after two TEAD sorts vs input, normalised to TB1G1)
chain 1 E6M | -2.04 log2 (fold change of variant abundance after two TEAD sorts vs input, normalised to TB1G1)
chain 1 E6A | -0.676 log2 (fold change of variant abundance after two TEAD sorts vs input, normalised to TB1G1)
